Measurements: US20170327585A1 (PHARMABCINE, published 2017)

Biological target: BSA (UniProt P02769 25-607)
Test: ELISA, coated BSA, anti-human IgG HRP
Method: ELISAs were performed to identify antigen-specific binding capacity of clones converted to IgG EGFRvIII peptide, […] peptide and BSA were coated on […] 96 well plates at 37° C. for 2 hours. Thereafter, after blocking the uncoated portion with 3% skim milk/0.05% PBST, 1 μg/ml IgG was added to the plate and reacted at 37° C. for 1 hour. Anti-human IgG HRP (pierce, USA) was diluted in 1:3000 and reacted for 1 hour. Next, the TMB substrate (BD, USA) was treated for 10 minutes for color development, and the reaction was stopped by treating with 2N H2SO4. As to the color developed ELISA, the absorbance was measured at 450 nm-650 nm using a Sunrise ELISA reader (TECAN, Switzerland).

BSA, sequence (P02769 25-607 limits assumed): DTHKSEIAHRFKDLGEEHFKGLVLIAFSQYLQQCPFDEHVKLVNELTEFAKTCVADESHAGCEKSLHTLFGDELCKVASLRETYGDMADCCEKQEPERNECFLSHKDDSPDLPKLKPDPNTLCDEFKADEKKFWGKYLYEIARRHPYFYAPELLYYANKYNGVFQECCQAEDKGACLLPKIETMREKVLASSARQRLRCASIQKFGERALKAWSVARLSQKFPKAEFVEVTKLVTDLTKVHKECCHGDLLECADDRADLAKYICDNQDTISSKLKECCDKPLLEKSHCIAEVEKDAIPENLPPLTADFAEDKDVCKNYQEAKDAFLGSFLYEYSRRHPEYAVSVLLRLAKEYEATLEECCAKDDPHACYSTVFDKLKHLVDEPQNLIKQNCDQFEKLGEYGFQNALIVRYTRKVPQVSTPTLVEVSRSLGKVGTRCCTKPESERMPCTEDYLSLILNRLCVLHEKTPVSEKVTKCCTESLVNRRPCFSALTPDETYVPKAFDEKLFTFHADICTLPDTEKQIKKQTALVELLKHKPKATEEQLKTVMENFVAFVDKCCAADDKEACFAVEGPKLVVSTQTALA

B1: PD10 human IgG (antibody, V domains shown)
VH: QVQLVESGGGLVQPGGSLRLSCAASGFTFDEHAMHWVRQAPGKGLQWVSGINWNSGKTGYADSVKGRFTISRDNSKNSLYLQMNSLRAEDTAVYYCTRPGEDTGGGFDIWGQGTMITVSS
VL: NFMLTQPASVSGSPGQSITISCTGSSSDVGGYNYVSWYQQHPGKAPQLIIYDVTKRPSGVSNRFSGSKSGNSASLTISGLQAEDEADYYCSSYSSSTFYVFGTGTKVTVLG
notes: Whole human IgG
- binding result: no binding (tested: 1 µg/ml IgG)

B2: PD27 human IgG (antibody, V domains shown)
VH: QVQLVESGGGLVQPGGSLRLSCAASGFTFDEHAMHWVRQAPGKGLQWVSGINWNSGKTGYADSVKGRFTISRDNSKNSLYLQMNSLRAEDTAVYYCTRPGEDTGGGFDIWGQGTMITVSS
VL: SYELTQPLSVSVSPGQTARITCSGDVLADHYSYWYQQKPGQAPVLVMYKDSERPSGIPERFSGSSSGTTVTLTISGVQAEDEADYYCQSVDSSDTSVVFGGGTKLTVLG
notes: Whole human IgG
- binding result: no binding (tested: 1 µg/ml IgG)

B3: PA430 human IgG (antibody, V domains shown)
VH: QMQLVESGGGVVQPGKSLRLSCAASGFTFSYHAMHWVRQAPGKGLEWLAAMSHDGTETSYADSVKGRITISRDNSKSALYLQMNSLRAEDTAVYYCTAEGLRSNGGAFETWGRGTMITVSS
VL: SYELTQPPSVSVAPGQTARITCSGDVLPKHYAYWYQQKPGQAPVLVIYKDSERPSGIPERFTGSSSGTKVTLTISGVRAEDEADYYCQSVDSSDTSVVFGGGTKLTVLG
notes: Converted from the phage antibody to whole human IgG with vectors pIgGHD-6A6Hvy and pIgGLD-6A6Lgt and expressed in HEK293T
- binding result: no binding (tested: 1 µg/ml IgG)

B4: PD52 human IgG (antibody, V domains shown)
VH: QMQLVQSGGGVVQPGGSLRLSCVGSGFSFDDYAMHWVRQAPGKGLEWVSGISWNSGAIGYADSVKGRFTVSRDNSKNSLYLQMNSLRAEDTAVYYCATASRGLGDAFDIWGQGTMVTVSS
VL: SYELTQPPSVSVSPGQTARITCSGDVLPKHYAYWYQQKPGQAPVLVIYKDTERPSGIPERFSGSSSGTTVTLTISGVQAEDEADYYCQSVDNSDTSVVFGGGTKLTVLG
notes: Whole human IgG
- binding result: no binding (tested: 1 µg/ml IgG)
